Measurements published in IntAct's records for PubMed 19430481.

Target: rpgr_mouse Rpgr (UniProt Q9R0X5)
Sequence (Q9R0X5 whole entry): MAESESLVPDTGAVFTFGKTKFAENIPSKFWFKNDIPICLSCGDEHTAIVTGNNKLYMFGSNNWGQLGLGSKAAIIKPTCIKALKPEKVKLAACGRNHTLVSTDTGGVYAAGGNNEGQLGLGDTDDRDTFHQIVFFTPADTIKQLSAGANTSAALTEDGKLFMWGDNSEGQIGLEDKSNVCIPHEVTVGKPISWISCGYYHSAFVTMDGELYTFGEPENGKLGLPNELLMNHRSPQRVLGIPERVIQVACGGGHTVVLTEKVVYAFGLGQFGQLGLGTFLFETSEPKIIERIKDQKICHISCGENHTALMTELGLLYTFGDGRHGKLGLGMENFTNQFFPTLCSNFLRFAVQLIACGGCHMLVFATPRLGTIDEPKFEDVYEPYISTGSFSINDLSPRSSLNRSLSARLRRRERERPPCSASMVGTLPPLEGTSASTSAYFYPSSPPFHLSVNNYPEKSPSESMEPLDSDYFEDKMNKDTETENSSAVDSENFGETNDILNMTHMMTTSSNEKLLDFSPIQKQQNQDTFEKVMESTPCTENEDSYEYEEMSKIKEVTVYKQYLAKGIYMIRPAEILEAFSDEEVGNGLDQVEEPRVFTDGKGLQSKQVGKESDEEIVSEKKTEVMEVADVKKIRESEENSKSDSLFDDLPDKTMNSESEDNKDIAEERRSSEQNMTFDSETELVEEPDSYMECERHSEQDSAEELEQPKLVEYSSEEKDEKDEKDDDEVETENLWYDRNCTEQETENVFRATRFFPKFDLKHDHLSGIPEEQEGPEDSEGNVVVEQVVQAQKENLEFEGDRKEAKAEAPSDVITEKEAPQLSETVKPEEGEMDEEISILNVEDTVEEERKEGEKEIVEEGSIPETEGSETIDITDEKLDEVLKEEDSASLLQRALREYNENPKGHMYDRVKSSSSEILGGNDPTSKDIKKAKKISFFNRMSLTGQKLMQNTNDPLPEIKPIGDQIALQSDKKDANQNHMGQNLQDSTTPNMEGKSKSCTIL

Chain of Protein fantom (Homo sapiens), Q68CZ1 A229T (Q68CZ1 whole entry A229T): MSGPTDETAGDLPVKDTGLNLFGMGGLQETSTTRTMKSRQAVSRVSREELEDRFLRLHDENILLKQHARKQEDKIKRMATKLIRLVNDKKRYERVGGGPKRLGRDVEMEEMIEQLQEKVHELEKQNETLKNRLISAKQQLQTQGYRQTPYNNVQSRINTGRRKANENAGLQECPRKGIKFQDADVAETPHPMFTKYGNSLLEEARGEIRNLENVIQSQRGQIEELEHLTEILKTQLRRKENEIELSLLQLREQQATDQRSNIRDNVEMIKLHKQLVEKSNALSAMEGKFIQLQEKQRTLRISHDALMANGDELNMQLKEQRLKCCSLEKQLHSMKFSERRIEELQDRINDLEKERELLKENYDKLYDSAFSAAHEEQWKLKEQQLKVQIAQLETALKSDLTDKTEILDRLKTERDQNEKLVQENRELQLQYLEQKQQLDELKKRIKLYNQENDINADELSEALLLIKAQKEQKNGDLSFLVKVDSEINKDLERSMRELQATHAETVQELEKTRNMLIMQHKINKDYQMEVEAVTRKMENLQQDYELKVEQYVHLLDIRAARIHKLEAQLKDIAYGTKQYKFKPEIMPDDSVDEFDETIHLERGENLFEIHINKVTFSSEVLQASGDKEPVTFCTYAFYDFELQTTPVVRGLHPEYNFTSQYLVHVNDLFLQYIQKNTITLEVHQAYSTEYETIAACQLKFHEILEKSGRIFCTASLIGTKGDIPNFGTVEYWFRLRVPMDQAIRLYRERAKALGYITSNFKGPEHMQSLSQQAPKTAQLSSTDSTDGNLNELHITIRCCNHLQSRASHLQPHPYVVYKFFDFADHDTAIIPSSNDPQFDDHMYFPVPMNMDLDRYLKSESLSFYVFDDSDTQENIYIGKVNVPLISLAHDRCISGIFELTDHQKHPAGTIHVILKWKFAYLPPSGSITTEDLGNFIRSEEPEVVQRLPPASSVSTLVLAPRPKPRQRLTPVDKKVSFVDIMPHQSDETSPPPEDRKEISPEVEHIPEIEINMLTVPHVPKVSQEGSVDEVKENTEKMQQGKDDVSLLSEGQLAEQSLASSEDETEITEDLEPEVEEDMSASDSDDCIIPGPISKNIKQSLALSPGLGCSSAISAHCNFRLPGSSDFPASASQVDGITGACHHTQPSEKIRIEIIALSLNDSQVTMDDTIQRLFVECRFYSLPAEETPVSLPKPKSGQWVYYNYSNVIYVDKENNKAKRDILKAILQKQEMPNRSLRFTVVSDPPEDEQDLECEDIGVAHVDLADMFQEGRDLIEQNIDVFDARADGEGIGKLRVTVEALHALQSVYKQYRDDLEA

Row | effect of a mutation on the interaction | Substance
1 | with no effect | Protein fantom (Homo sapiens), Q68CZ1 T677I
2 | decreasing interaction strength | Protein fantom (Homo sapiens), Q68CZ1 T615P
3 | decreasing interaction strength | Protein fantom (Homo sapiens), Q68CZ1 A695P
4 | decreasing interaction strength | Protein fantom (Homo sapiens), Q68CZ1 A229T
